Where no end group is shown, it is not given here.
What was measured:
Assay in all cases: VN-peptide array, ligand overlay, immunoblot/ECL, TotalLab spot intensity
[1] = target: T1, Human receptor grade IGFBP-3 (insulin-like growth factor binding protein 3) (human, UniProt P17936 28-291)
T1 construct: Bought recombinant protein, overlaid in solution on the VN-peptide array
Method: (§1) Methanol or ethanol was used to enhance the rehydration of peptide spots that might be hydrophobic. The peptides spotted onto the membranes were activated by incubating in 3 mL of 70% ethanol for five mins. The membranes were subsequently washed three times, 10 minutes each, in 10 mL TBS (Tris Buffered Saline; 8 g NaCl, 0.2 g KCl and 6.1 g Tris Base into 1000 mL of milliQ water, pH 7) with gentle rocking. Membrane blocking was performed by incubating in 10 mL casein-based membrane blocking buffer (MBS; Sigma-Aldrich) overnight at 4° C. The following day, the membranes were washed twice, 10 minutes each, in 10 mL TBS-T (TBS+0.05% Tween-20; pH 7).
(§2) Ligands used to test binding to VN-peptides were IGFBP-3, IGFBP-5 and IGF-II. For ligand binding, four separate solutions of 1 μg/mL ligand in 10 mL MBS buffer were prepared and each membrane was incubated in one of the four ligand solutions overnight at 4° C., with gentle rocking. […] The following day, the membranes were washed three times, 10 minutes each, in 10 mL TBS-T.
(§3) The binding of the ligands to peptides within the membrane was detected using immunoblotting. The membranes were incubated overnight at 4° C. with 10 mL primary antibody solution (in MBS buffer) targeting the respective ligands. The antibodies used were anti-IGFBP-3 (1:10,000), anti-IGFBP-5 (1:10,000) and anti-IGF-II (1:5000) to detect IGFBP-3, IGFBP-5 and IGF-II respectively. The following day, the membranes were washed three times, 10 minutes each, in 10 mL TBS-T and incubated with 10 mL HRP-conjugated secondary IgG antibody diluted 1:15,000 in MBS buffer for 1 hour at room temperature. Following a further three washes of 10 minutes each, the peptide spots were visualized using ECL. The membranes were exposed onto x-ray films and developed using a film processor (AGFA CP 1000), or were imaged directly using the ChemiDoc™ XRS system (BioRad).

[2] = target: T2, Human receptor grade IGFBP-5 (insulin-like growth factor binding protein 5) (human, UniProt P24593 21-272)
T2 construct: Bought recombinant protein, overlaid in solution on the VN-peptide array
Method: as §1, §2, §3

[3] = target: T3, Human receptor grade IGF-II (insulin-like growth factor II) (human, UniProt P01344 25-91)
T3 construct: Bought recombinant protein, overlaid in solution on the VN-peptide array
Method: as §1, §2, §3

T1 sequence (P17936 28-291 limits assumed): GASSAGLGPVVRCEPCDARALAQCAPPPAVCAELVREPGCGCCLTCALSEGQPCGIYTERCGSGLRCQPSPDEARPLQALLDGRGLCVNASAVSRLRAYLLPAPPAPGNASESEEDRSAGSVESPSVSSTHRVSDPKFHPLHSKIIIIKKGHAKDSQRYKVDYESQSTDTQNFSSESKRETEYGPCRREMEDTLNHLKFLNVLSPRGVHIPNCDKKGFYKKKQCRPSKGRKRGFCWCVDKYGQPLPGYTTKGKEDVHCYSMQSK
T3 sequence (P01344 25-91 limits assumed): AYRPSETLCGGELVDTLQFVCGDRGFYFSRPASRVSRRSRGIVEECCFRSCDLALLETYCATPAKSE
T2 sequence (P24593 21-272 limits assumed): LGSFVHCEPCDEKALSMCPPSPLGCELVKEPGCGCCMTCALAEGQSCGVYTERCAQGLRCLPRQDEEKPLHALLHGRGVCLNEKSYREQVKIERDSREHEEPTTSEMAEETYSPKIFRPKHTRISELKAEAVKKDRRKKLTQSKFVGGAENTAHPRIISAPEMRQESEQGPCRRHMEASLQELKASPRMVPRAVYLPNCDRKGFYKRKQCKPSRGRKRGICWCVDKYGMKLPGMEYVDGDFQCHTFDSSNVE

Row | Binder | Intensity (against -ve control) [1] | Intensity (against -ve control) [2] | Intensity (against -ve control) [3]
1 | KPEGIDSRPETLHPGR (not fully specified (N-terminus); also: free end capped by acetylation, immobilised on cellulose membrane (SPOT synthesis)) [VN-peptide 2A (array grid C12)] | 4 fold over negative controls | 5 fold over negative controls | –
2 | SEESNLGANNYDDYRM (not fully specified (N-terminus); also: free end capped by acetylation, immobilised on cellulose membrane (SPOT synthesis)) [VN-peptide 7B (array grid I8)] | – | – | 18 fold over negative controls
3 | DSWEDIFELLFWGRTS (not fully specified (N-terminus); also: free end capped by acetylation, immobilised on cellulose membrane (SPOT synthesis)) [VN-peptide 5D (array grid G8)] | 2.5 fold over negative controls | – | –
4 | QYWEYQFQHQPSQEEC (not fully specified (N-terminus); also: free end capped by acetylation, immobilised on cellulose membrane (SPOT synthesis)) [VN-peptide 4B (array grid F13)] | 12 fold over negative controls | – | –
5 | GIDSRPETLHPGRPQP (not fully specified (N-terminus); also: free end capped by acetylation, immobilised on cellulose membrane (SPOT synthesis)) [VN-peptide 2B (array grid C13)] | 2 fold over negative controls | 7 fold over negative controls | –
6 | FAMMQRDSWEDIFELL (not fully specified (N-terminus); also: free end capped by acetylation, immobilised on cellulose membrane (SPOT synthesis)) [VN-peptide 5B (array grid G6)] | 4.5 fold over negative controls | – | –
7 | SNLGANNYDDYRMDWL (not fully specified (N-terminus); also: free end capped by acetylation, immobilised on cellulose membrane (SPOT synthesis)) [VN-peptide 7C (array grid I9)] | – | – | 12 fold over negative controls
8 | LFSSEESNLGANNYDD (not fully specified (N-terminus); also: free end capped by acetylation, immobilised on cellulose membrane (SPOT synthesis)) [VN-peptide 7A (array grid I7)] | – | – | 17 fold over negative controls
9 | FEHFAMMQRDSWEDIF (not fully specified (N-terminus); also: free end capped by acetylation, immobilised on cellulose membrane (SPOT synthesis)) [VN-peptide 5A (array grid G5)] | 1.5 fold over negative controls | – | –
10 | MQRDSWEDIFELLFWG (not fully specified (N-terminus); also: free end capped by acetylation, immobilised on cellulose membrane (SPOT synthesis)) [VN-peptide 5C (array grid G7)] | 4.5 fold over negative controls | – | –
11 | KGKQYWEYQFQHQPSQ (not fully specified (N-terminus); also: free end capped by acetylation, immobilised on cellulose membrane (SPOT synthesis)) [VN-peptide 4A (array grid F12)] | 6 fold over negative controls | – | –
